Series [1] concerns the molecule itself. Briefly: asymmetrical flow field-flow fractionation with UV, MALS and dRI detection (AF4-UV-MALS-dRI); self-association; carrier liquid 10 mM citrate-phosphate buffer pH 8, room temperature; relative amounts from deconvoluted UV fractograms at 280 nm.
Series [2] concerns the molecule itself. The series can be described thus: asymmetrical flow field-flow fractionation with UV, MALS and dRI detection (AF4-UV-MALS-dRI); self-association; carrier liquid 10 mM citrate-phosphate buffer pH 6, room temperature; relative amounts from deconvoluted UV fractograms at 280 nm.

B1: glutamate decarboxylase (LbGadB) from Lactobacillus brevis DSM 1269, recombinant (enzyme, UniProt A9ZM78 1-480, looked up)
chain: MMNKNDQETQQMINNVDLEKTFLGSVEAGQSLPTYTLPDDPMAPDVAAQLVEHYRLNEAKANQNLATFCTTQMEPQADELMKNALNTNAIDKSEYPKTAAMENYCVSMIAHLWGIPDNEKIYDDFIGTSTVGSSEGCMLGGLALLHSWKHRAKAAGFDIEDLHSHKPNLVIMSGYQVVWEKFCTYWNVEMRQVPINGDQVSLDMDHVMDYVDENTIGIIGIEGITYTGSVDDIQTLDNLVTEYNKTATMPVRIHVDAAFGGLFAPFVDGFNPWDFRLKNVVSINVSGHKYGMVYPGLGWIVWRHDTADILPAEMRFQVPYLGKTVDSIAINFSHSGAHISAQYYNFIRFGLSGYKTIMQNVRKVSLKLTAALKTYGIFDILVDGSQLPINCWKLADDAPVGWTLYDLESELAKYGWQVPAYPLPKNRDDVTISRIVVRPSMTMTIADDFLDDLKLAIDGLNHTFGVTTTVDQDNKTTVRS
notes: glutamate decarboxylase LbGadB of Lactobacillus brevis DSM 1269; gene amplified from genomic DNA with a forward primer that holds the ATG (NdeI site) and a reverse primer with an XhoI site, cloned in pET21b; gene deposited as GenBank KX417371; Oligomeric state depends on pH: dimer at pH 7-8, hexamer at pH 6, so copies is left empty; the whole gene appears to have been cloned; Cloning NdeI/XhoI in …
For B1, the stoichiometry N (as a rule, the number of molecules, sites or subunits per partner or assembly) was found to be 2 in series [1] and 6 in series [2].

These data come from PMC5750328, “Study on oligomerization of glutamate decarboxylase from Lactobacillus brevis using asymmetrical flow field-flow fractionation (AF4) with light scattering techniques” (Analytical and Bioanalytical Chemistry, 2017).
